From patent publication US20090170763A1 (KENJI KANGAWA, published 2009)
Like-named read-outs stand apart in the source and are kept apart here. Square brackets hold non-standard residues; d marks the D form. Ends that are not written are not given here. * marks the point of attachment. NMeF = CN[C@@H](Cc1ccccc1)C(=O)O; NMeL = CN[C@@H](CC(C)C)C(=O)O; Decanoyl = CCCCCCCCCC(=O)*; Octanoyl = CCCCCCCC(=O)*; Hexanoyl = CCCCCC(=O)*; Ava = NCCCCC(=O)O; Octyl = CCCCCCCC*

Columns and labels:
[1] = biological target: amino-terminal antibody (anti-[C-Cys]-rat ghrelin [1-11] antigen); test: radioimmunoassay: inhibition of binding of radioisotope-labeled rat ghrelin to the amino-terminal antibody
[2] = biological target: T1, rat GHS-R (GHS receptor) expressed on CHO-GHSR62 cells (rat, UniProt O08725 1-364); test: cell-based or functional assay
T1 sequence (O08725 whole entry): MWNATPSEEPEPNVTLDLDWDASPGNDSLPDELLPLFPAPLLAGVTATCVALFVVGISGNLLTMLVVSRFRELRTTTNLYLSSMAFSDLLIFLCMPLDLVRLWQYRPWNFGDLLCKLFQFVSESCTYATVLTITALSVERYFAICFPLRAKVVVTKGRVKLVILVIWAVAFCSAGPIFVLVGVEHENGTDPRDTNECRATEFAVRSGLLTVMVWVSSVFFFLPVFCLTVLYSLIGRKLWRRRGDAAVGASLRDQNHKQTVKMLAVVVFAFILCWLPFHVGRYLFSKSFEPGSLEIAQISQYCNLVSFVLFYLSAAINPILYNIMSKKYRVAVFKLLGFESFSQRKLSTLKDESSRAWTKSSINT

[3] = biological target: T1, rat GHS-R (GHS receptor) expressed on …; test: cell-based or functional assay; remark: listed apart in the source
[4] = biological target: T1, rat GHS-R (GHS receptor) expressed on …; test: cell-based or functional assay; remark: listed apart in the source
[5] = biological target: T1, rat GHS-R (GHS receptor) expressed on …; test: cell-based or functional assay; remark: listed apart in the source
[6] = biological target: T1, rat GHS-R (GHS receptor) expressed on …; test: cell-based or functional assay; remark: listed apart in the source
[7] = biological target: T1, rat GHS-R (GHS receptor) expressed on …; test: cell-based or functional assay; remark: listed apart in the source
[8] = biological target: T1, rat GHS-R (GHS receptor) expressed on …; test: cell-based or functional assay; remark: listed apart in the source
[9] = biological target: T1, rat GHS-R (GHS receptor) expressed on …; test: cell-based or functional assay; remark: listed apart in the source
[10] = biological target: T1, rat GHS-R (GHS receptor) expressed on …; test: cell-based or functional assay; remark: listed apart in the source
[11] = biological target: T1, rat GHS-R (GHS receptor) expressed on …; test: cell-based or functional assay; remark: listed apart in the source

human ghrelin (peptide) gave a cross-reactivity [1] of 100%.

B1: [N-Aminopentanoyl]-Ghrelin (3-7)-amide (peptide)
peptide: [Ava]S(Octanoyl)FLSP-NH2
modifications: N-terminus assumed
SMILES: CCCCCCCC(=O)OC[C@H](NC(=O)CCCCN)C(=O)N[C@@H](Cc1ccccc1)C(=O)N[C@@H](CC(C)C)C(=O)N[C@@H](CO)C(=O)N1CCC[C@H]1C(N)=O
With B1 the “Ca-releasing activity EC50” value [2] was 3.4 nM.

With GS[dS](Octyl)FLSP-NH2 [[^DSer^3(Octyl)]-Ghrelin (1-7)-amide] the “Ca-releasing activity EC50” value [3] was > 10000 nM.

GSS(Octanoyl)FLSPEHQKAQRKESKKPPAKLQPR [rat ghrelin-27] was tested, and the “Ca-releasing activity EC50” value [4] was 1.5 nM and the “Ca-releasing activity (EC50, nM)” value [5] was 2.8 nM.

B2: Ghrelin (1-9)-amide (peptide)
peptide: GSS(Octanoyl)FLSPEH-NH2
modifications: N-terminus assumed
SMILES: CCCCCCCC(=O)OC[C@H](NC(=O)[C@H](CO)NC(=O)CN)C(=O)N[C@@H](Cc1ccccc1)C(=O)N[C@@H](CC(C)C)C(=O)N[C@@H](CO)C(=O)N1CCC[C@H]1C(=O)N[C@@H](CCC(=O)O)C(=O)N[C@@H](Cc1c[nH]cn1)C(N)=O
With B2 the “Ca-releasing activity EC50” value [6] was 5.4 nM.

GSS(Hexanoyl)FLSPEHQKAQQRKESKKPPAKLQPR [[Ser^3(Hexanoyl)]-rGhrelin] was tested, and the “Ca-releasing activity (EC50, nM)” value [5] was 16 nM, the cross-reactivity [1] was 0.3% and the “Ca-releasing activity EC50” value [7] was 16 nM.

B3: [Leu^2]-Ghrelin (1-7)-amide (peptide)
peptide: GLS(Octanoyl)FLSP-NH2
modifications: N-terminus assumed
SMILES: CCCCCCCC(=O)OC[C@H](NC(=O)[C@H](CC(C)C)NC(=O)CN)C(=O)N[C@@H](Cc1ccccc1)C(=O)N[C@@H](CC(C)C)C(=O)N[C@@H](CO)C(=O)N1CCC[C@H]1C(N)=O
With B3 the “Ca-releasing activity EC50” value [2] was 42 nM.

B4: [Ser^2(Octanoyl), Ser^3]-Ghrelin (1-9)-amide (peptide)
peptide: GS(Octanoyl)SFLSPEH-NH2
modifications: N-terminus assumed
SMILES: CCCCCCCC(=O)OC[C@H](NC(=O)CN)C(=O)N[C@@H](CO)C(=O)N[C@@H](Cc1ccccc1)C(=O)N[C@@H](CC(C)C)C(=O)N[C@@H](CO)C(=O)N1CCC[C@H]1C(=O)N[C@@H](CCC(=O)O)C(=O)N[C@@H](Cc1c[nH]cn1)C(N)=O
With B4 the “Ca-releasing activity EC50” value [6] was 1100 nM.

For [Ava]S(Octyl)[NMeF][NMeL]-NH2 [[N-Aminopentanoyl,Ser^3(Octyl),MePhe^4,MeLeu^5]-Ghrelin (3-5)-amide], the EC50 [8] was 86 nM and the “Activity EC50” value [9] was 82 nM.

B5: [N-Octanoyl, Ser^3]-Ghrelin (1-9)-amide (peptide)
peptide: Octanoyl-GSSFLSPEH-NH2
SMILES: CCCCCCCC(=O)NCC(=O)N[C@@H](CO)C(=O)N[C@@H](CO)C(=O)N[C@@H](Cc1ccccc1)C(=O)N[C@@H](CC(C)C)C(=O)N[C@@H](CO)C(=O)N1CCC[C@H]1C(=O)N[C@@H](CCC(=O)O)C(=O)N[C@@H](Cc1c[nH]cn1)C(N)=O
With B5 the “Ca-releasing activity EC50” value [6] was > 10000 nM.

In the case of Ac-GSS(Octanoyl)FLSPEHQ [[N-Acetyl]-Ghrelin (1-10)], the “Ca-releasing activity EC50” value [2] is reported as > 10000 nM.

In the case of GSS(Octanoyl)FLSPEHQKAQQRKESKKPPAKLQPR [rat ghrelin], the “EC50 value” [10] is reported as 1.5 nM, the “Ca-releasing activity EC50” value [8] is reported as 2.5 nM and the “Ca-releasing activity EC50” value [6] is reported as 1.5 nM. For the same molecule, the cross-reactivity [1] was 100%.

In the case of GSS(Decanoyl)FLSPEHQKAQQRKESKKPPAKLQPR [[Ser^3(Decanoyl)]-rGhrelin], the “Ca-releasing activity (EC50, nM)” value [5] is reported as 2.6 nM, the cross-reactivity [1] is reported as 20% and the “Ca-releasing activity EC50” value [7] is reported as 1.7 nM.

GS[dS](Octyl)[dF]LSP-NH2 [[^DSer^3(Octyl),^DPhe^4]-Ghrelin (1-7)-amide] was tested, and the “Ca-releasing activity EC50” value [3] was > 10000 nM.

For KESKKPPAKLQPR (not fully specified) [Ghrelin (16-28)], the “Ca-releasing activity EC50” value [4] was > 10000 nM and the “Ca-releasing activity (EC50, nM)” value [5] was > 10000 nM.

In the case of GSK(Octanoyl)FLSPEHQRVQQRKESKKPPAKLQPR [[Lys^3(Octanoyl)]-hGhrelin], the “Activity EC50” value [11] is reported as 32 nM.

For GSS(Octanoyl)FLSPEHQKAQQR [rGhrelin (1-15)], the “Ca-releasing activity EC50” value [4] was 8.6 nM and the “Ca-releasing activity (EC50, nM)” value [5] was 8.6 nM.

For GSS(Octanoyl)FLSPEHQRVQQR [hGhrelin (1-15)], the “Ca-releasing activity EC50” value [4] was 7 nM and the “Ca-releasing activity (EC50, nM)” value [5] was 7 nM.

With GSS(Octyl)[dF]LSP-NH2 [[Ser^3(Octyl),^DPhe^4]-Ghrelin (1-7)-amide] the “Ca-releasing activity EC50” value [3] was 2200 nM.

B6: [Ser^3(Octyl)]-Ghrelin (1-7)-amide (peptide)
peptide: GSS(Octyl)FLSP-NH2
modifications: N-terminus assumed
SMILES: CCCCCCCCOC[C@H](NC(=O)[C@H](CO)NC(=O)CN)C(=O)N[C@@H](Cc1ccccc1)C(=O)N[C@@H](CC(C)C)C(=O)N[C@@H](CO)C(=O)N1CCC[C@H]1C(N)=O
With B6 the “Ca-releasing activity EC50” value [3] was 5.8 nM.

For GS(Octanoyl)S(Octanoyl)FLSPEH-NH2 [[Ser^2(Octanoyl)]-Ghrelin (1-9)-amide], the “Ca-releasing activity EC50” value [6] was 1400 nM.
